From patent publication US8217137B2, “Fullerene-based amino acids” (William Marsh Rice University, priority 2004, dated 2012)
Square brackets hold non-standard residues; d marks the D form. Ends that are not written are not given here. BAA = bucky amino acid

System: Rat maxillary incisor pulp cells (RPC-C2A)
Test: Cell viability assay (Live-Dead Assay Kit), cytotoxicity of fullerene peptide
Assay type: cell-based
Conditions: 4, 40 and 400 μM peptide solutions in PBS, 100 μL mixed with 1.9 mL medium, 48 hrs incubation, Calcein AM / EthD-1
Procedure: Rat maxillary incisor pulp cells (RPC-C2A) were seeded on a 24-well tissue culture plate at 3540 cells per well and incubated for 24 hr at 37° C. in a 5% CO2 environment. Dulbecco's Modified Eagle's Medium (DMEM; Invitrogen, NY) was prepared with 10% fetal bovine serum (FBS; BioWhitaker, Walkersville, Md.), 2 mM Amphothericin B, 1 unit/ml penicillin, and 100 mg/l streptomycin (Invitrogen, NY). Three different concentrations of Fullerene peptide solutions (4, 40, and 400 μM) were prepared in PBS and sterilized using 0.2 μm filter syringe. 100 μL of the solution was mixed with 1.9 mL of medium and added to cells. Control was also prepared by adding PBS buffer solution without peptide-modified fullerene to cells. After 48 hrs of incubation, cell viability was determined using Live-Dead Assay Kit (Molecular Probes, Inc., Eugene, Oreg.). Calcein AM is converted to a green fluorescent product within live cells due to enzymatic activity, while ethidium homodimer-1, a red fluorescent compound, accumulates in dead cells due to increased membrane permeability. After removing medium, cells were rinsed with PBS solution twice. Cells in each well was incubated with 0.4 mL of 4 μM EthD-1 and 2 μM of Calcein AM in PBS for 30 min and observed under fluorescent microscope.
For the statistical analysis, the data were compared with two-tailed, unpaired t-tests. […]

“BAA-Glu-Glu-Glu-Glu-Gly-Gly-Gly-Ser-COOH ([BAA]EEEEGGGS-OH) [fullerene-based peptide, peptide with a bucky amino acid (BAA) at the N-terminus]” was tested, and the “toxicity to the cells (cell viability)” value was “no toxicity”.
